# Test results: article PMC10397247
# T1: O5
# T1 chain: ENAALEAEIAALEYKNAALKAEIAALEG
# T2: O7
# T2 chain: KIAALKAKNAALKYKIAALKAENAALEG
# T3: O3
# T3 chain: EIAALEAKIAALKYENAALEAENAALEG
# T4: O4
# T4 chain: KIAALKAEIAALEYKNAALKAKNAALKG
# T5: O6
# T5 chain: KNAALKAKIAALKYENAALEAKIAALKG
# T6: O9
# T6 chain: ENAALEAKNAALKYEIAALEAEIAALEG
# T7: O8
# T7 chain: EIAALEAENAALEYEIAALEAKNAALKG
# T8: P8A-bN
# T8 chain: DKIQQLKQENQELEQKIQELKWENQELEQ
# T9: P9A-bN
# T9 chain: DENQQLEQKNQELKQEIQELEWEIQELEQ
# T10: P8A-bS
# T10 chain: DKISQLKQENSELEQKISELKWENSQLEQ
# T11: P9A-bS
# T11 chain: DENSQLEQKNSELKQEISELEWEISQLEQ
# T12: P7A-bS
# T12 chain: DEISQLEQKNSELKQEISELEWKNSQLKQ
# T13: O5-bA
# T13 chain: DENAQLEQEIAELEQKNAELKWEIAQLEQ
# T14: O8-bA
# T14 chain: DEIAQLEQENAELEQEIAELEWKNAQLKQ
# T15: O4-bA
# T15 chain: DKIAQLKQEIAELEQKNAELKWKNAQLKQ
# T16: O6-bA
# T16 chain: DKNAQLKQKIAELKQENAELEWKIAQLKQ
# T17: O9-bA
# T17 chain: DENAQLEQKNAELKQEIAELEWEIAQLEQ
# T18: O2-bA
# T18 chain: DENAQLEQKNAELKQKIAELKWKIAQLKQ
# T19: O3-bA
# T19 chain: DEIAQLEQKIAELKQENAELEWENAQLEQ
# T20: O7-bA
# T20 chain: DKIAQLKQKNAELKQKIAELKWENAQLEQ
# T21: 4H470-bH
# T21 chain: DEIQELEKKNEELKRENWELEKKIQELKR
# Assays:
# O5 = target: T1, O5; test: two-hybrid library CC0; settings: mean of both orientations;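 further: natural log of median RNA to DNA barcode read ratio; higher means stronger binding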
# O7 = target: T2, O7; test: two-hybrid library CC0; settings: mean of both orientations;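 further: natural log of median RNA to DNA barcode read ratio; higher means stronger binding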
# O3 = target: T3, O3; test: two-hybrid library CC0; settings: mean of both orientations;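 further: natural log of median RNA to DNA barcode read ratio; higher means stronger binding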
# O4 = target: T4, O4; test: two-hybrid library CC0; settings: mean of both orientations;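 further: natural log of median RNA to DNA barcode read ratio; higher means stronger binding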
# O6 = target: T5, O6; test: two-hybrid library CC0; settings: mean of both orientations
# O9 = target: T6, O9; test: two-hybrid library CC0; settings: mean of both orientations
# O8 = target: T7, O8; test: two-hybrid library CC0; settings: mean of both orientations
# P8A-bN = target: T8, P8A-bN; test: two-hybrid library CCNG1
# P9A-bN = target: T9, P9A-bN; test: two-hybrid library CCNG1
# P8A-bS = target: T10, P8A-bS; test: two-hybrid library CCNG1
# P9A-bS = target: T11, P9A-bS; test: two-hybrid library CCNG1
# P7A-bS = target: T12, P7A-bS; test: two-hybrid library CCNG1
# O5-bA = target: T13, O5-bA; test: two-hybrid library CCNG1
# O8-bA = target: T14, O8-bA; test: two-hybrid library CCNG1
# O4-bA = target: T15, O4-bA; test: two-hybrid library CCNG1
# O6-bA = target: T16, O6-bA; test: two-hybrid library CCNG1
# O9-bA = target: T17, O9-bA; test: two-hybrid library CCNG1
# O2-bA = target: T18, O2-bA; test: two-hybrid library CCNG1
# O3-bA = target: T19, O3-bA; test: two-hybrid library CCNG1
# O7-bA = target: T20, O7-bA; test: two-hybrid library CCNG1
# 4H470-bH = target: T21, 4H470-bH; test: two-hybrid library CCNG1
binder,measurement,setting,value
EIAALEAKIAALKYENAALEAENAALEG [O3],interaction score,O5,-2.78
same,interaction score,O7,-2.77
same,interaction score,O3,-2.75
same,interaction score,O4,1.48
same,interaction score,O6,-2.66
same,interaction score,O9,-2.71
same,interaction score,O8,-2.58
DKIQQLKQENQELEQKIQELKWENQELEQ [P8A-bN],interaction score,P8A-bN,-1.84
same,interaction score,P9A-bN,-1.47
DEISQLEQKNSELKQEISELEWKNSQLKQ [P7A-bS],interaction score,P8A-bS,0.493
same,interaction score,P9A-bS,-0.768
same,interaction score,P7A-bS,-1.32
DENAQLEQKNAELKQKIAELKWKIAQLKQ [O2-bA],interaction score,O5-bA,0.59
same,interaction score,O8-bA,0.682
same,interaction score,O4-bA,-0.35
same,interaction score,O6-bA,-0.5
same,interaction score,O9-bA,1
same,interaction score,O2-bA,-0.405
same,interaction score,O3-bA,-0.0372
same,interaction score,O7-bA,-0.0715
DEIQELEKKNEELKRENWELEKKIQELKR [4H470-bH],interaction score,4H470-bH,0.789
